The Kd is the constant that tells how readily two partners part at equilibrium. A higher Kd goes with weaker binding.

Two molecules from patent publication US20200140551A1 (GlaxoSmithKline, published 2020) can be followed below.

For one test, the target named is T1, cynomolgus ICOS (cynomolgus, UniProt A0A2K5TQR6 21-140).
T1 construct: also called cyno ICOS; not shown: Carrier of the soluble construct, if any
T1 sequence: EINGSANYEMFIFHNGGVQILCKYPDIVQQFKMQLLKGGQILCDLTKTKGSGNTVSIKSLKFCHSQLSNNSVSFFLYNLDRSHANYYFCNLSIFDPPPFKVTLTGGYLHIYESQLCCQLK
Put plainly: Biacore (SPR), cyno ICOS; format not described.

A further test concerns the target T2, human ICOS (human, UniProt Q9Y6W8 21-140, limits assumed).
T2 sequence: T1 sequence with R81H
Put plainly: Biacore (SPR), human ICOS; format not described. In general terms: In SPR one partner is held on a chip, and binding of the other changes the refractive index at the surface.

Where a chain is given by its changes, count along the chain named.

B1: murine anti-human ICOS mAb clone 422.2 (antibody, V domains shown)
VH: QVQLQQSGPELVRPGESVKISCMGSGYTFTDYAMHWVKQSHAKSLEWIGLISIYSDHTNYNQKFQGKATMTVDKSSSTAYMELARLTSEDSAIYYCGRNNYGNYGWYFDVWGAGTTVTVSS
VL: ENVLTQSPAIMSASPGEKVTMTCSASSSVSYMHWYQQKSITSPKLWIYDTSKLASGVPGRFSGSGSGNSYSLTISSMEAEDVATYYCFQGSGYPYTFGGGTKLEIKR
notes: also called hybridoma clone 422.2
Take B1: the values for the Kd with cynomolgus ICOS and with human ICOS were 4.46 nM and 5.7 nM, respectively.

B2: murine anti-human ICOS mAb clone 88.2 (antibody, V domains shown)
VH: QVQLQQPGAELVRPGASVKLSCKASGYSFTSYWINWVKQRPGQGLEWIGNIYPSDSYTNYNQMFKDKATLTVDKSSNTAYMQLTSPTSEDSAVYYCTRWNLSYYFDNNYYLDYWGQGTTLTVSS
VL: QAVVTQESALTTSPGETVTLTCRSSTGAVTTSNYANWVQEKPDHLFTGLIGGTNNRAPGVPARFSGSLIGDKAALTITGAQTEDEAIYFCALWYNNHLVFGGGTKLTVL
As for B2, the dissociation constant Kd with cynomolgus ICOS stood at 23 nM; with human ICOS, 31 nM.
